Assay results published in article PMC4793217.

Columns and labels:
[1] = target: T1, ME31B, endogenous (D. melanogaster (endogenous in embryos)) (UniProt P23128); test: co-IP
T1 sequence: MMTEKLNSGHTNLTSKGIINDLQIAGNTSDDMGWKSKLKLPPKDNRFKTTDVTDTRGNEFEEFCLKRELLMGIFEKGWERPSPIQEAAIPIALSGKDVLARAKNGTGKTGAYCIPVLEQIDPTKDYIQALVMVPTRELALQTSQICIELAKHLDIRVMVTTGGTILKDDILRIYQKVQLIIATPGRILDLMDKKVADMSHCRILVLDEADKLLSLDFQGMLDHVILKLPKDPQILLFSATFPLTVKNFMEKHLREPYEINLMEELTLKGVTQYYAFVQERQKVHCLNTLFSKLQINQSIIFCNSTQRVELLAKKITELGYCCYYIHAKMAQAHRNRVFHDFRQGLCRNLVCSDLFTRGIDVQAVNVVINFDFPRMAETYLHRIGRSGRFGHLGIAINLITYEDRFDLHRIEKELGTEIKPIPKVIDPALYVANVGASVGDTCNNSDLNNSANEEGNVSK

[2] = target: IMP, endogenous (D. melanogaster (endogenous in embryos)); test: co-IP

B1: anti-ME31B (P012) synthetic Fab (Fab, V domains shown)
VH: EVQLVESGGGLVQPGGSLRLSCAASGFNLSYSSIHWVRQAPGKGLEWVASIYSYYGYTYYADSVKGRFTISADTSKNTAYLQMNSLRAEDTAVYYCARWYWYGWALDYWGQGTLVTVSS
VL: DIQMTQSPSSLSASVGDRVTITCRASQSVSSAVAWYQQKPGKAPKLLIYSASSLYSGVPSRFSGSRSGTDFTLTISSLQPEDFATYYCQQGPYPYYGLITFGQGTKVEIK
percent of IP input precipitated [1]: < 1%

B2: anti-IMP (P054) synthetic Fab (Fab, V domains shown)
VH: EVQLVESGGGLVQPGGSLRLSCAASGFNLSYSYIHWVRQAPGKGLEWVASIYSYYSYTYYADSVKGRFTISADTSKNTAYLQMNSLRAEDTAVYYCARWWVVYGMDYWGQGTLVTVSS
VL: DIQMTQSPSSLSASVGDRVTITCRASQSVSSAVAWYQQKPGKAPKLLIYSASSLYSGVPSRFSGSRSGTDFTLTISSLQPEDFATYYCQQHWWLITFGQGTKVEIK
percent of IP input precipitated [2]: 1 to 10%
